B1: human GST M1-1 (Homo sapiens) (protein)
chain: PMILGYWDIRGLAHAIRLLLEYTDSSYEEKKYTMGDAPDYDRSQWLNEKFKLGLDFPNLPYLIDGAHKITQSNAILCYIARKHNLCGETEEEKIRVDILENQTMDNHMQLGMICYNPEFEKLKPKYLEELPEKLKLYSEFLGKRPWFAGNKITFVDFLVYDVLDLHRIFEPKCLDAFPNLKDFISRFEGLEKISAYMKSSRFLPRPVFSKMAVWGNK
B2: rat GST 5-5 (Rattus norvegicus) (protein)
chain: VLELYLDLLSQPCRAIYIFAKKNNIPFQMHTVELRKGEHLSDAFAQVNPMKKVPAMKDGGFTLCESVAILLYLAHKYKVPDHWYPQDLQARARVDEYLAWQHTTLRRSCLRTLWHKVMFPVFLGEQIRPEMLAATLADLDVNVQVLEDQFLQDKDFLVGPHISLADVVAITELMHPVGGGCPVFEGRPRLAAWYRRVEAAVGKDLFLEAHEVILKVRDCPPADPVIKQKLMPRVLTMIQ
B3: human GST A3-3 (Homo sapiens) (protein)
chain: AGKPKLHYFNGRGRMEPIRWLLAAAGVEFEEKFIGSAEDLGKLRNDGSLMFQQVPMVEIDGMKLVQTRAILNYIASKYNLYGKDIKERALIDMYTEGMADLNEMILLLPLCRPEEKDAKIALIKEKTKSRYFPAFEKVLQSHGQDYLVGNKLSRADISLVELLYYVEELDSSLISNFPLLKALKTRISNLPTVKKFLQPGSPRKPPADAKALEEARKIFRF
B4: human GST P1-1 (Homo sapiens) (protein)
chain: PPYTVVYFPVRGRCAALRMLLADQGQSWKEEVVTVETWQEGSLKASCLYGQLPKFQDGDLTLYQSNTILRHLGRTLGLYGKDQQEAALVDMVNDGVEDLRCKYISLIYTNYEAGKDDYVKALPGQLKPFETLLSQNQGGKTFIVGDQISFADYNLLDLLLIHEVLAPGCLDAFPLLSAYVGRLSARPKLKAFLASPEYVNLPINGNGKQ
B5: human GST T1-1 (Homo sapiens) (protein)
chain: GLELYLDLLSQPCRAVYIFAKKNDIPFELRIVDLIKGQHLSDAFAQVNPLKKVPALKDGDFTLTESVAILLYLTRKYKVPDYWYPQDLQARARVDEYLAWQHTTLRRSCLRALWHKVMFPVFLGEPVSPQTLAATLAELDVTLQLLEDKFLQNKAFLTGPHISLADLVAITELMHPVGAGCQVFEGRPKLATWRQRVEAAVGEDLFQEAHEVILKAKDFPPADPTIKQKLMPWVLAMIR
B6: human GST A1-1 (Homo sapiens) (protein)
chain: AEKPKLHYFNARGRMESTRWLLAAAGVEFEEKFIKSAEDLDKLRNDGYLMFQQVPMVEIDGMKLVQTRAILNYIASKYNLYGKDIKERALIDMYIEGIADLGEMILLLPVCPPEEKDAKLALIKEKIKNRYFPAFEKVLKSHGQDYLVGNKLSRADIHLVELLYYVEELDSSLISSFPLLKALKTRISNLPTVKKFLQPGSPRKPPMDEKSLEEARKIFRF

Tests used:
Experiment in all cases: purified protein
Conditions in all cases: 5 mM GSH, 0.10 M Tris-HCl pH 7.7, 37 °C, 1 h
purified protein [1] = substrate: C1O[C@H]1[C@H]1CO1
purified protein [2] = substrate: C1O[C@@H]1[C@H]1CO1
purified protein [3] = substrate: C1O[C@@H]1[C@@H]1CO1

Protein | Km (purified protein [1]) [µM] | kcat (purified protein [1]) [s⁻¹] | kcat/Km (purified protein [1]) [M⁻¹ s⁻¹] | Km (purified protein [2]) [µM] | kcat (purified protein [2]) [s⁻¹] | kcat/Km (purified protein [2]) [M⁻¹ s⁻¹] | Km (purified protein [3]) [µM] | kcat (purified protein [3]) [s⁻¹] | kcat/Km (purified protein [3]) [M⁻¹ s⁻¹]
B1 | 810 ± 50 | 0.074 | 91.7 | 920 ± 330 | 0.0497 | 56.7 | 730 ± 60 | – | –
B2 | 800 ± 60 | 0.0573 | 71.7 | 830 ± 150 | 0.0308 | 38.3 | 770 ± 20 | 0.0638 | 83.3
B3 | 510 ± 80 | 0.028 | 55 | 750 ± 120 | 0.0302 | 40 | 480 ± 330 | 0.0253 | 66.7
B4 | 910 ± 10 | 0.0442 | 48.3 | 590 ± 150 | 0.0265 | 46.7 | 740 ± 330 | 0.044 | 65
B5 | 930 ± 10 | 0.0617 | 66.7 | 370 ± 10 | 0.0403 | 108 | 790 ± 30 | 0.0618 | 78.3
B6 | 320 ± 10 | 0.0218 | 68.3 | 540 ± 30 | 0.0342 | 63.3 | 300 ± 50 | 0.0228 | 78.3

Reference: article PMC3850785
